B1: POU domain, class 3, transcription factor 3, residues 320 to 388; numbered along this chain, P20264 (parent)
chain: DDLEQFAKQFKQRRIKLGFTQADVGLALGTLYGNVFSQTTICRFEALQLSFKNMCKLKPLLNKWLEEAD

Variants of: B1
Assay: abundance fitness (aPCA) (normalised: wild type 0, dead -1); higher = more abundant; growth selection in yeast, the domain comes from the species named
Conditions: Homo sapiens

Abundance fitness: each site, then its substitutions
L61: A -0.803 | C -0.796 | G -0.891 | M -0.522 | T -0.513 | P -0.928 | K -0.66 | W -0.881 | V -0.513 | Q -0.811 | E -0.99 | R -0.97 | I -0.696 | S -0.977
K56: C -0.391 | L -0.079 | G -0.539 | D -0.163 | H -0.61 | F -0.11 | Y -0.753 | N -0.44 | W -0.548 | S -0.181 | I -0.063 | M -0.173 | R 0.017 | P -0.848 | E -0.066
E67: R -0.015 | T -0.134 | V -0.321 | K -0.029 | L 0.333 | S 0.196 | A -0.032 | G -0.084 | Q -0.227
K63: G -0.074 | S -0.317 | N -0.261 | A -0.129 | P -0.77 | C -0.147 | F -0.149 | M -0.435 | V -0.743 | H -0.189 | Y -0.53 | W -0.658 | I -0.697 | L -0.493 | E -0.519 | Q -0.066 | D -0.349
L65: R -0.674 | C -0.846 | I -0.513 | M -0.185 | S -0.58 | G -0.935 | Q -0.73 | W -0.297 | T -0.732 | K -0.211 | F -0.633
A46: D -0.573 | E -0.178 | C -0.299 | T -0.142 | V -0.702 | P -0.843 | W -0.601 | M 0.22 | K 0.205 | S -0.059 | R -0.277 | H -0.043 | G -0.053 | Q -0.282 | I -0.727
L47: D -0.661 | Y -0.131 | G -0.038 | T -0.602 | S -0.29 | E -0.662 | V -0.039 | M 0.113 | R 0.039 | F -0.293 | C 0.021 | A -0.342 | K -0.111 | H 0.083 | N 0.599
E66: I 0.075 | C -0.046 | G -0.889 | N 0.122 | H 0.082 | T -0.132 | F -0.127 | D 0.402 | M 0.002 | L -0.428 | V -0.225 | Y -0.635 | R -0.146 | K -0.123 | S -0.502
C42: Y 0.055 | T -0.176 | P -0.276 | D 0.032 | M -0.284 | N 0.208 | S -0.14 | W -0.38 | I 0.11 | A 0.076 | Q 0.06 | G -0.014 | R 0.054 | L -0.193 | H -0.006 | K 0.13
T40: Y -0.59
W64: G -0.77 | P -0.746 | I -0.715 | H -0.778 | V -0.305 | T -1.15 | S -0.757 | A -0.737 | R -0.582 | L -0.913 | E -0.792 | Q -0.8 | M -0.83
L60: R -0.491 | A -0.51 | K -0.334 | W -0.227 | V -0.309 | S -0.563
F51: W -0.567 | E 0.115 | I -0.51 | V 0.013 | H 0.051 | A -0.081 | G -0.136 | D -0.14 | Y -0.247 | N -0.002 | R 0.035 | C -0.416 | M -0.231 | P 0.064 | K 0.132 | T 0.061 | Q 0.142 | S -0.002
P59: G -0.166 | K -0.247 | M -0.279 | W -0.986 | L -0.378 | Q -0.333 | R -0.389 | C -0.064 | T -0.459 | V -0.377 | E -0.353 | S -0.398
L49: T -0.846 | V -0.934 | H -0.697 | Y -0.582 | M -0.078 | P -0.65 | A -0.441 | C -0.873 | F -0.865 | R -0.385 | N -0.594 | W -0.021 | I -1.01 | E -0.573 | K -0.548 | S -0.649
K58: I -0.416 | R 0.031 | V -0.398 | T -0.892 | L -0.875 | S -0.796 | G -0.852 | A -0.337 | C 0.152
L57: G -0.78 | A -0.602 | K -0.645 | E -1.16 | H -0.333 | W -0.401 | V -0.535 | P 0.029 | T -0.698 | M -0.279 | S -0.572 | R -0.715
N62: A 0.001 | R -0.063 | L -0.126 | V 0.148 | S 0.03 | G 0.052 | W -0.739 | D 0.024 | H 0.11 | K -0.12 | Q -0.028
C55: T -0.186 | K -0.009 | S -0.102 | Y -0.269 | Q 0.209 | V 0.019 | W -0.177 | H -0.199 | I -0.046 | F 0.253 | M -0.032 | G -0.354 | P -0.874 | L -0.156 | E -0.255 | N -0.102
A68: N -0.163 | M 0.303 | E -0.6 | H -0.392 | L -0.705 | G -0.62 | C -0.485
M54: W -0.801 | Q -0.7 | S -0.483 | P -1.05 | T -0.733 | R -0.909 | F -0.96 | L -0.428 | C -0.636 | I -0.911
E45: T -0.729 | A -0.511 | S -0.628 | G -0.982 | V -0.946 | F -0.58 | P -0.803 | W -0.787 | K -0.649 | M -0.82 | R -0.891 | L -0.628 | Q 0.081
R43: W -0.866 | P -0.975 | G -0.798 | D -0.402 | E -0.076 | M -0.62 | H -0.586 | K -0.034 | C -0.447 | T -0.946 | L -0.858 | Q -0.113
K52: N -0.093
S50: A -0.751 | Q 0.161 | C -0.786 | K -0.302 | G -0.561 | D -0.074 | F -0.711 | P 0.034 | L -0.833 | E -0.18 | N -0.922 | V -1.04
N53: W -0.102 | Q -0.044 | L -0.148 | Y -0.357 | S -0.257 | A -0.035 | P -0.613 | C -0.255 | M 0.114 | F -0.513 | E 0.049 | G -0.148 | D 0.012 | H -0.09 | R -0.037 | I -0.167 | T 0.051 | V -0.306
F44: W -0.568 | L -0.859 | R -0.946 | A -1.04 | M -0.725 | V -0.678 | K -0.696 | P -1.02 | G -0.772
Q48: T -0.187 | G -0.264 | I -0.835 | M -0.599 | E -0.088 | L -0.375 | K -0.177 | W -0.453 | R -0.416 | S -0.205 | A -0.612

— the Human Domainome abundance scans (Beltran et al. 2025)
